Assay results from US20160243215A1.

Legend:
[1] = target: 405C full-length gp160 Env on SHIV (HIV-1 clade C, isolate 405C); assay: cell-based or functional assay
[2] = target: 459C full-length gp160 Env on SHIV (HIV-1 clade C, isolate 459C); assay: cell-based or functional assay
[3] = target: 405C gp140 trimer (405C gp140-foldon, gp140Fd) (HIV-1 clade C, isolate 405C); assay: SPR; 4,500 RU IgG captured on protein A, Env flowed over
[4] = target: 939C gp140 trimer (939C gp140-foldon, gp140Fd) (HIV-1 clade C, isolate 939C); assay: as above
[5] = target: 405C gp140 trimer (405C gp140-foldon, gp140Fd) (HIV-1 clade C, isolate 405C); assay: SPR (Example 8); IgG captured on protein A, trimer flowed over
[6] = target: 405C gp140 trimer (405C gp140-foldon, gp140Fd) (HIV-1 clade C, isolate 405C); assay: SPR; IgG captured on protein A, trimer flowed over
[7] = target: 405C gp140 trimer (405C gp140-foldon, gp140Fd) (HIV-1 clade C, isolate 405C); assay: SPR; IgG captured on protein A, Env flowed over; 1:1 model
[8] = target: 459C gp140 trimer (459C gp140-foldon, gp140Fd) (HIV-1 clade C, isolate 459C); assay: as above
[9] = target: 459C gp120 monomer (HIV-1 clade C, isolate 459C); assay: as above
[10] = target: 939C gp120 monomer (HIV-1 clade C, isolate 939C); assay: as above
[11] = target: 405C gp120 monomer (HIV-1 clade C, isolate 405C); assay: as above
[12] = target: 939C gp140 trimer (939C gp140-foldon, gp140Fd) (HIV-1 clade C, isolate 939C); assay: as above
[13] = target: 459C gp120 monomer (HIV-1 clade C, isolate 459C); assay: SPR; IgG captured on protein A, Env flowed over; 1:1 model (monomer rates are rough estimates)
[14] = target: 405C gp120 monomer (HIV-1 clade C, isolate 405C); assay: as above
[15] = target: 405C gp140 trimer (405C gp140-foldon, gp140Fd) (HIV-1 clade C, isolate 405C); assay: SPR; 3,500 RU IgG captured on protein A, Env flowed over; 1:1 model
[16] = target: 459C gp140 trimer (459C gp140-foldon, gp140Fd) (HIV-1 clade C, isolate 459C); assay: as above
[17] = target: 939C gp140 trimer (939C gp140-foldon, gp140Fd) (HIV-1 clade C, isolate 939C); assay: as above

## PG16 IgG (antibody)
[1]
  IC50 Titers (TZM.bl cells, ug/ml): 2.05 µg/mL
[2]
  IC50 Titers (TZM.bl cells, ug/ml): 6.7 µg/mL
[3]
  Kd: 1450 nM
  koff: 0.00151 s⁻¹
[4]
  Kd: 1260 nM
  koff: 0.00286 s⁻¹
  kon: 2410 M⁻¹ s⁻¹

## 3BNC117 IgG (antibody)
[5]
  fold lower magnitude of binding than Env 459C and 939C trimers: 5 fold
[6]
  fold lower magnitude of binding than 459C and 939C trimers: 5 fold
[7]
  Kd: 78.3 nM
  koff: 0.000322 s⁻¹
  kon: 4110 M⁻¹ s⁻¹
[8]
  Kd: 1.24 nM
  koff: 1.04e-05 s⁻¹
  kon: 8500 M⁻¹ s⁻¹
[9]
  Kd: 95.1 nM
  koff: 0.0005 s⁻¹
  kon: 6130 M⁻¹ s⁻¹
[10]
  Kd: 172 nM
  koff: 0.000961 s⁻¹
  kon: 6450 M⁻¹ s⁻¹
[11]
  Kd: 85.8 nM
  koff: 0.00042 s⁻¹
  kon: 4900 M⁻¹ s⁻¹
[12]
  Kd: 27.1 nM
  koff: 0.000224 s⁻¹
  kon: 8330 M⁻¹ s⁻¹
[1]
  IC50 Titers (TZM.bl cells, ug/ml): 4.94 µg/mL
[2]
  IC50 Titers (TZM.bl cells, ug/ml): 5.97 µg/mL

## PGT126 IgG (antibody)
[13]
  Kd: 41.3 nM
  koff: 0.000592 s⁻¹
  kon: 14800 M⁻¹ s⁻¹
[14]
  Kd: 38.3 nM
  koff: 0.0012 s⁻¹
  kon: 31400 M⁻¹ s⁻¹
[7]
  Kd: 9.83 nM
  koff: 0.000282 s⁻¹
  kon: 28700 M⁻¹ s⁻¹
[8]
  Kd: 8.3 nM
  koff: 0.000243 s⁻¹
  kon: 29500 M⁻¹ s⁻¹
[12]
  Kd: 6.63 nM
  koff: 0.000232 s⁻¹
  kon: 35000 M⁻¹ s⁻¹

## VRC01 IgG (antibody)
[5]
  fold lower magnitude of binding than Env 459C and 939C trimers: 5 fold
[6]
  fold lower magnitude of binding than 459C and 939C trimers: 5 fold
[7]
  Kd: 7.42 nM
  koff: 4.52e-05 s⁻¹
  kon: 6090 M⁻¹ s⁻¹
[8]
  Kd: 7.5 nM
  koff: 4.75e-05 s⁻¹
  kon: 6990 M⁻¹ s⁻¹
[9]
  Kd: 328 nM
  koff: 0.00109 s⁻¹
  kon: 3320 M⁻¹ s⁻¹
[10]
  Kd: 57.3 nM
  koff: 0.000249 s⁻¹
  kon: 4350 M⁻¹ s⁻¹
[11]
  Kd: 35.3 nM
  koff: 0.000278 s⁻¹
  kon: 7870 M⁻¹ s⁻¹
[12]
  Kd: 3.52 nM
  koff: 1.55e-05 s⁻¹
  kon: 4400 M⁻¹ s⁻¹
[1]
  IC50 Titers (TZM.bl cells, ug/ml): 13.3 µg/mL
[2]
  IC50 Titers (TZM.bl cells, ug/ml): 11.9 µg/mL

## PG9 IgG (antibody)
[1]
  IC50 Titers (TZM.bl cells, ug/ml): 17.4 µg/mL
[2]
  IC50 Titers (TZM.bl cells, ug/ml): > 50 µg/mL
[15]
  Kd: 335 nM
  koff: 0.000662 s⁻¹
  kon: 1970 M⁻¹ s⁻¹
[16]
  Kd: 448 nM
  koff: 0.0032 s⁻¹
  kon: 7150 M⁻¹ s⁻¹
[17]
  Kd: 157 nM
  koff: 0.00126 s⁻¹
  kon: 8010 M⁻¹ s⁻¹

## PGT121 IgG (antibody)
[13]
  Kd: 123 nM
  koff: 0.000824 s⁻¹
  kon: 6720 M⁻¹ s⁻¹
[14]
  Kd: 64.2 nM
  koff: 0.000492 s⁻¹
  kon: 7670 M⁻¹ s⁻¹
[7]
  Kd: 10.6 nM
  koff: 0.000104 s⁻¹
  kon: 9780 M⁻¹ s⁻¹
[8]
  Kd: 5.56 nM
  koff: 8.73e-05 s⁻¹
  kon: 15700 M⁻¹ s⁻¹
[12]
  Kd: 25.7 nM
  koff: 0.00043 s⁻¹
  kon: 16700 M⁻¹ s⁻¹

## b12 IgG (antibody)
[1]
  IC50 Titers (TZM.bl cells, ug/ml): > 50 µg/mL
[2]
  IC50 Titers (TZM.bl cells, ug/ml): > 50 µg/mL
